In publication doi:10.1101/525329:
Like-named read-outs stand apart in the source and are kept apart here.

Tests used:
Test in all cases: co-sedimentation
[1] = target: paclitaxel-stabilized microtubules (bovine brain tubulin) (bovine) (UniProt Q6B856)
[2] = target: paclitaxel-stabilized microtubules (bovine brain tubulin) (bovine) (UniProt Q6B856); remark: listed apart in the source
[3] = target: paclitaxel-stabilized microtubules (bovine brain tubulin) (bovine) (UniProt Q6B856); remark: listed apart in the source
[4] = target: paclitaxel-stabilized microtubules (bovine brain tubulin) (bovine) (UniProt Q6B856); remark: listed apart in the source
[5] = target: paclitaxel-stabilized microtubules (bovine brain tubulin) (bovine) (UniProt Q6B856); remark: listed apart in the source

Sequence of paclitaxel-stabilized microtubules (bovine brain tubulin) (bovine) (Q6B856 whole entry, looked up): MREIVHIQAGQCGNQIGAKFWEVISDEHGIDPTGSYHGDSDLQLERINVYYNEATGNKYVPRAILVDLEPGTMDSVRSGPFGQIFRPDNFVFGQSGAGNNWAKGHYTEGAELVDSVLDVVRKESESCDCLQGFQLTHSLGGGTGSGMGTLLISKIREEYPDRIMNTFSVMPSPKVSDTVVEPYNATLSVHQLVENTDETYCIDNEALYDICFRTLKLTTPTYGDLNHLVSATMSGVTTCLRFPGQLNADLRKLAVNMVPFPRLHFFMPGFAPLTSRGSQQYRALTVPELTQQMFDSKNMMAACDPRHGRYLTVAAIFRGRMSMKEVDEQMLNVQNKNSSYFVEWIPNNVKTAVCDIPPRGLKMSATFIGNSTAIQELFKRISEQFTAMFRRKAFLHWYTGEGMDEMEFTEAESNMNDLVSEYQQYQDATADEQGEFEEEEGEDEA

Kd [1] [nM] | Kd [2] [nM] | Kd [3] [nM] | stoichiometry N [3] | stoichiometry N (motor bound per tubulin dimer) [3] | Kd [4] [nM] | stoichiometry N (motor per tubulin dimer) [3] | Kd [5] [nM] | Substance
3000 | 2900 | 100 | 1.4 | 1 | – | – | – | Cin8-EL8 (tagless): monomeric Cin8 motor with the loop-8 insert of Eg5 (domain or fragment)
– | – | 100 | – | – | 100 | 1 | – | Eg5-CL8-MBP (MBP-His6-TEV-Eg5-CL8) (from UniProt P27895 261-359) (domain or fragment)
– | – | 100 | 1.3 | – | – | – | 440 | Eg5-KL8: monomeric Eg5 motor domain with the loop-8 insert of Kip1 (domain or fragment)
– | – | 7 | 2.2 | – | – | – | – | wild type monomeric Cin8 motor domain with thioredoxin tag (Cin8-trx) (domain or fragment)
